Laboratory results as given in paper doi:10.1101/2022.12.06.519310.

Target: WDR5_(WD40), as used in the ITC (human)
Test: ITC

B1: unmodified H3 tail peptide of the ITC (H3K4unmodQ5unmod) (peptide)
chain: ARTKQTARKSTGGKA
modifications: not checked
A Kd of 20.2 µM was found for B1 in this work.
